Patent US20230303715A1

What was measured:
FcγRIIa [1] = molecular target: FcγRIIa (UniProt P12318); test: SPR Biacore, Ab on HER2 chip
FcγRIIb [2] = molecular target: FcγRIIb (UniProt P31994); test: SPR Biacore, Ab on HER2 chip
FcγRIIa [3] = molecular target: FcγRIIa (UniProt P12318); test: SPR; KD wt/KD mut vs 16588
FcγRIIb [4] = molecular target: FcγRIIb (UniProt P31994); test: SPR; KD wt/KD mut vs 16588
[5] = molecular target: soluble human FcRn (human) (UniProt P55899); test: SPR ProteOn, Ab on protein L, pH 6.0
FcγRI = FcγRI (UniProt P12314); test: SPR ProteOn, Ab on HER2 chip, equilibrium fit
[6] = molecular target: biotinylated human FcRn (produced by Protocol 1) (human) (UniProt P55899); test: SPR Biacore T200, FcRn on neutravidin, pH 6
[7] = molecular target: biotinylated human FcRn (produced by Protocol 1) (human) (UniProt P55899); test: SPR; KD wt/KD mut vs parental variant
FcγRIIaR [8] = molecular target: FcγRIIaR (UniProt P12318); test: SPR ProteOn, Ab on HER2 chip, equilibrium fit
FcγRIII [9] = molecular target: FcγRIII (UniProt P08637); test: SPR ProteOn, Ab on HER2 chip, equilibrium fit
FcγRIIb [10] = molecular target: FcγRIIb (UniProt P31994); test: SPR ProteOn, Ab on HER2 chip, equilibrium fit
FcγRIIaH [11] = molecular target: FcγRIIaH (UniProt P12318); test: SPR ProteOn, Ab on HER2 chip, equilibrium fit
FcγRIII [12] = molecular target: FcγRIII (UniProt P08637); test: SPR; KD wt/KD mut vs parental variant
FcγRIIaH [13] = molecular target: FcγRIIaH (UniProt P12318); test: SPR; KD wt/KD mut vs parental variant
FcγRIIa [14] = molecular target: FcγRIIa (UniProt P12318); test: SPR Biacore, Ab on HER2 chip; KD called ambiguous
FcγRIIb [15] = molecular target: FcγRIIb (UniProt P31994); test: SPR Biacore, Ab on HER2 chip; KD called ambiguous
FcγRIIaR [16] = molecular target: FcγRIIaR (UniProt P12318); test: SPR; KD wt/KD mut vs parental variant
FcγRIIb [17] = molecular target: FcγRIIb (UniProt P31994); test: SPR; KD wt/KD mut vs parental variant

FcγRIIaH, sequence (P12318 34-217 limits assumed): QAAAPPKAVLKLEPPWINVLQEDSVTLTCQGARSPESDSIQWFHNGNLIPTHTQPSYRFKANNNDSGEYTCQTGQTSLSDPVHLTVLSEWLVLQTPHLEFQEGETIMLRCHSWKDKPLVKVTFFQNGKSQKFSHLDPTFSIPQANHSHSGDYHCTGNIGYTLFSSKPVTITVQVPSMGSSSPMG
FcγRI, sequence (P12314 16-292 limits assumed): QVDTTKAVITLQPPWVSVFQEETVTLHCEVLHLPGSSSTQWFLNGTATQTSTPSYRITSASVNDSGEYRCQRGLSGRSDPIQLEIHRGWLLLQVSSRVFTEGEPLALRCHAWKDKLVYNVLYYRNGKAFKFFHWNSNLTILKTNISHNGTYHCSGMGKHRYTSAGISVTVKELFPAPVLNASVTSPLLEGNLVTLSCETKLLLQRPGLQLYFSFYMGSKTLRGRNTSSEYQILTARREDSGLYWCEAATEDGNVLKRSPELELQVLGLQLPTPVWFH
FcγRIII, sequence (P08637 17-208 limits assumed): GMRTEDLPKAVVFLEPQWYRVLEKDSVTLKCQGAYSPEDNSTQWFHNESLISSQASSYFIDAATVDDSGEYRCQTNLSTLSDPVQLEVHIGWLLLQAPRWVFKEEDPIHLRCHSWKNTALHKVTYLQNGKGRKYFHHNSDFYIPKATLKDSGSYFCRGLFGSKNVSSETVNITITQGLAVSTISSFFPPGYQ
FcγRIIb, sequence (P31994 43-217 limits assumed): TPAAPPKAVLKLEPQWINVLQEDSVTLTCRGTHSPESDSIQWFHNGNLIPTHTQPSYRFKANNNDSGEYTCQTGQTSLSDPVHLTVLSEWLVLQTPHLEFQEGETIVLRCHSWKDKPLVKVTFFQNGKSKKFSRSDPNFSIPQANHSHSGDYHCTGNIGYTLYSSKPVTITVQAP
FcγRIIaR, sequence (P12318 34-217 H167R limits assumed): as the sequence (P12318 34-217 limits assumed) above, with H134R counted along it
biotinylated human FcRn (produced by Protocol 1) (human), sequence (P55899 24-297 limits assumed, chain 1 of 2): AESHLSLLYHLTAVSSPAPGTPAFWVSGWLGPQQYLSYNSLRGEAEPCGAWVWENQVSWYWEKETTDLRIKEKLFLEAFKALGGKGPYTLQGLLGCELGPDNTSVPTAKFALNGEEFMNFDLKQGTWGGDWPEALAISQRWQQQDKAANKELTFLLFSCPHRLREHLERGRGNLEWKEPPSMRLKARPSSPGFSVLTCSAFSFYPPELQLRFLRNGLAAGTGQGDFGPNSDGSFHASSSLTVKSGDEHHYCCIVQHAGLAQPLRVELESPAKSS
biotinylated human FcRn (produced by Protocol 1) (human), sequence (P61769 21-119 limits assumed, chain 2 of 2, further chain): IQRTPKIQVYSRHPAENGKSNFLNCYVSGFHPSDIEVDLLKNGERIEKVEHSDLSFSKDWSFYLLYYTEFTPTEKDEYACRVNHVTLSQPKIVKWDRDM
soluble human FcRn (human), sequence (P55899 24-297 limits assumed, chain 1 of 2): as the sequence (P55899 24-297 limits assumed, chain 1 of 2) above
soluble human FcRn (human), sequence (P61769 21-119 limits assumed, chain 2 of 2, further chain): as the sequence (P61769 21-119 limits assumed, chain 2 of 2, further chain) above

Substance	Kd (FcγRIIa [1]) [nM]	Kd (FcγRIIb [2]) [nM]	Relative FcγRIIa Binding (FcγRIIa [3])	Relative FcγRIIb Binding (FcγRIIb [4])	further results
trastuzumab Scaffold 1 variant 19307 (A378W) (antibody)	1450	5460	0.76	0.7	–
trastuzumab Scaffold 1 variant 19317 (L309Q) (antibody)	1150	3680	0.96	1.03	Kd [5]: 1000 nM
trastuzumab Scaffold 6 (N297A) variant v31514 (A287F_M428F) (antibody)	–	–	–	–	Kd (FcγRI): 16.2 nM; Kd [6]: 369 nM; Fold [7]: 1.3
trastuzumab Scaffold 1 variant 19312 (V279I) (antibody)	1170	3720	0.94	1.02	–
trastuzumab Scaffold 1 variant 19320 (L242C_K334C) (antibody)	1540	3820	0.71	0.99	Kd [5]: 645 nM
trastuzumab Scaffold 1 variant 19322 (V259C_L306C) (antibody)	758	3720	1.45	1.02	–
trastuzumab Scaffold 7 (S239D/I332E) variant v31518 (A287F_M428F) (antibody)	–	–	–	–	Kd (FcγRIIaR [8]): 691 nM; Kd (FcγRIII [9]): 30.9 nM; Kd (FcγRIIb [10]): 1150 nM; Kd (FcγRI): 0.0136 nM; Kd (FcγRIIaH [11]): 671 nM; Kd [6]: 275 nM; Fold [7]: 1.2; Fold (FcγRIII [12]): 1; Fold (FcγRIIaH [13]): 1.2
trastuzumab Scaffold 1 variant 19324 (D249C_P257C) (antibody)	–	14000	–	–	–
trastuzumab Scaffold 1 variant 19309 (L242I) (antibody)	–	5070	–	–	–
trastuzumab Scaffold 1 variant 19326 (V263C_V302C) (antibody)	–	–	1.14	1.35	Kd (FcγRIIa [14]): 963 nM; Kd (FcγRIIb [15]): 2820 nM; Kd [5]: 604 nM
trastuzumab full-size antibody with S239D and I332E (Scaffold 7), variant v31517	–	–	–	–	Kd (FcγRIIaR [8]): 775 nM; Kd (FcγRIII [9]): 32 nM; Kd (FcγRIIb [10]): 1250 nM; Kd (FcγRIIaH [11]): 775 nM; Kd [6]: 337 nM
trastuzumab Scaffold 6 (N297A) variant v31516 (M428F_T250V) (antibody)	–	–	–	–	Kd (FcγRI): 20 nM; Kd [6]: 360 nM
trastuzumab Scaffold 1 variant 19327 (L242C_I336C) (antibody)	1140	3220	0.97	1.18	–
trastuzumab Scaffold 6 (N297A) variant v31515 (A287F_T250V) (antibody)	–	–	–	–	Kd (FcγRI): 18.7 nM; Kd [6]: 553 nM; Fold [7]: 0.8
trastuzumab Scaffold 1 variant 19303 (A287F) (antibody)	1070	–	–	–	Kd [5]: 690 nM
trastuzumab Scaffold 1 variant 19328 (T289C_S304C) (antibody)	689	2050	1.6	1.85	–
trastuzumab full-size antibody with homodimeric IgG1 Fc (Scaffold 1), variant 16588 (WT)	–	3800	–	–	Kd [5]: 641 nM
trastuzumab Scaffold 1 variant 19316 (M252S) (antibody)	1160	3750	0.94	1.01	–
trastuzumab Scaffold 1 variant 19308 (M428F) (antibody)	1030	3510	1.06	1.08	Kd [5]: 464 nM

Substance	Kd (FcγRIIa [1]) [nM]	Kd (FcγRIIb [2]) [nM]	Relative FcγRIIa Binding (FcγRIIa [3])	Relative FcγRIIb Binding (FcγRIIb [4])	further results
trastuzumab Scaffold 1 variant 19323 (R292C_V302C) (antibody)	3660	17600	0.3	0.22	–
trastuzumab Scaffold 1 variant 19313 (V308I) (antibody)	1240	4030	0.89	0.94	–
trastuzumab Scaffold 1 variant 19331 (V240C_I332C) (antibody)	63700	16900	0.02	0.23	–
trastuzumab full-size antibody with N297A (Scaffold 6), variant v31513	–	–	–	–	Kd (FcγRI): 25.7 nM; Kd [6]: 467 nM
trastuzumab variant v17078 (WT) (antibody)	–	–	–	–	Kd (FcγRIIaR [8]): 2070 nM; Kd (FcγRIII [9]): 1480 nM; Kd (FcγRIIb [10]): 6850 nM; Kd (FcγRI): 0.0894 nM; Kd [6]: 292 nM
trastuzumab Scaffold 1 variant 19321 (A287C_L306C) (antibody)	1130	3670	0.98	1.03	Kd [5]: 693 nM
trastuzumab Scaffold 1 variant 19319 (K334R) (antibody)	941	2950	1.17	1.29	–
trastuzumab Scaffold 7 (S239D/I332E) variant v31519 (A287F_T250V) (antibody)	–	–	–	–	Kd (FcγRIIaR [8]): 685 nM; Kd (FcγRIII [9]): 29 nM; Kd (FcγRI): 0.0108 nM; Kd (FcγRIIaH [11]): 655 nM; Kd [6]: 470 nM
trastuzumab Scaffold 1 variant 19306 (A339Q) (antibody)	1040	3810	–	–	–
trastuzumab Scaffold 1 variant 19305 (A339W) (antibody)	640	2100	1.72	1.81	–
trastuzumab Scaffold 1 variant 19304 (T289W) (antibody)	–	3460	–	–	–
trastuzumab Scaffold 1 variant 19329 (F243C_T260C) (antibody)	2930	9830	0.38	0.39	–
trastuzumab Scaffold 7 (S239D/I332E) variant v31520 (M428F_T250V) (antibody)	–	–	–	–	Kd (FcγRIIaR [8]): 667 nM; Kd (FcγRIII [9]): 32.1 nM; Kd (FcγRIIb [10]): 1130 nM; Kd (FcγRI): 0.0145 nM; Kd (FcγRIIaH [11]): 644 nM; Kd [6]: 286 nM; Fold [7]: 1.2; Fold (FcγRIIaR [16]): 1.2; Fold (FcγRIIb [17]): 1.1; Fold (FcγRIIaH [13]): 1.2
trastuzumab Scaffold 1 variant 19311 (F275I) (antibody)	745	2220	1.48	1.71	–
trastuzumab Scaffold 1 variant 19310 (T250V) (antibody)	899	3050	1.22	1.24	Kd [5]: 821 nM
trastuzumab Scaffold 1 variant 19325 (F275C_S304C) (antibody)	–	4910	–	–	–
trastuzumab Scaffold 1 variant 19318 (L314M) (antibody)	2020	5760	0.55	0.66	–
trastuzumab Scaffold 1 variant 19314 (Y319F) (antibody)	–	3490	–	–	–
